Each block holds one binder with its values, some of them ahead of it.
Legend:
Experiment in all cases: SPR ProteOn XPR36, antibody captured on anti-human IgG, PCSK9 variant as analyte, 25 C, 1:1 model
[1] = biological target: Human PCSK9 form f (human, UniProt Q8NBP7 31-692)
[2] = biological target: T1, Human PCSK9 form p (human, UniProt Q8NBP7 31-692)
T1 construct: also called PCSK9 p

[3] = biological target: T2, Human PCSK9 form a (human, UniProt Q8NBP7 31-692)
T2 construct: also called PCSK9 a

[4] = biological target: T3, Human PCSK9 form c (human, UniProt Q8NBP7 31-692)
T3 construct: also called PCSK9 c

[5] = biological target: T4, Human PCSK9 form r (human, UniProt Q8NBP7 31-692)
T4 construct: also called PCSK9 r

Kd [1]: 0.203 nM
koff [1]: 0.000282 s⁻¹
kon [1]: 1.39e+06 M⁻¹ s⁻¹
Kd [2]: 0.196 nM
koff [2]: 0.000273 s⁻¹
kon [2]: 1.39e+06 M⁻¹ s⁻¹
Kd [3]: 0.201 nM
koff [3]: 0.000275 s⁻¹
kon [3]: 1.37e+06 M⁻¹ s⁻¹
Kd [4]: 0.184 nM
koff [4]: 0.000275 s⁻¹
kon [4]: 1.49e+06 M⁻¹ s⁻¹
Kd [5]: 0.197 nM
koff [5]: 0.000276 s⁻¹
kon [5]: 1.4e+06 M⁻¹ s⁻¹
B1: Antibody 316P (antibody, V domains shown)
VH: EVQLVESGGGLVQPGGSLRLSCAASGFTFNNYAMNWVRQAPGKGLDWVSTISGSGGTTNYADSVKGRFIISRDSSKHTLYLQMNSLRAEDTAVYYCAKDSNWGNFDLWGRGTLVTVSS
VL: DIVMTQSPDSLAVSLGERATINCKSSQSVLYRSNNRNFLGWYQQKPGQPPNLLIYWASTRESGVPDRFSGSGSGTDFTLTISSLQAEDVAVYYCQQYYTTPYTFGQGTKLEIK

Kd [1]: 0.229 nM
koff [1]: 2.66e-05 s⁻¹
kon [1]: 116000 M⁻¹ s⁻¹
Kd [2]: 0.219 nM
koff [2]: 2.5e-05 s⁻¹
kon [2]: 114000 M⁻¹ s⁻¹
Kd [3]: 0.229 nM
koff [3]: 2.62e-05 s⁻¹
kon [3]: 114000 M⁻¹ s⁻¹
Kd [4]: 0.183 nM
koff [4]: 2.2e-05 s⁻¹
kon [4]: 120000 M⁻¹ s⁻¹
Kd [5]: 0.23 nM
koff [5]: 2.67e-05 s⁻¹
kon [5]: 116000 M⁻¹ s⁻¹
B2: Evolocumab (antibody, V domains shown)
VH: QVQLVQSGAEVKKPGASVKVSCKASGYTLTSYGISWVRQAPGQGLEWMGWVSFYNGNTNYAQKLQGRGTMTTDPSTSTAYMELRSLRSDDTAVYYCARGYGMDVWGQGTTVTVSS
VL: QSALTQPASVSGSPGQSITISCTGTSSDVGGYNSVSWYQQHPGKAPKLMIYEVSNRPSGVSNRFSGSKSGNTASLTISGLQAEDEADYYCNSYTSTSMVFGGGTKLTVL

Reference: patent EP2975059A1 (Kymab Limited, dated 2016)
